Experimental data published in patent US11045560B2, “Therapeutic conjugates with sulfated dendrimers for intracellular targeting” (IC DISCOVERY GMBH, priority 2014, dated 2021).
No end group written: not given here. d02 = not defined here

What was measured:
[1] = test system: HT29, HepG2, QGP-1, A431, MCF-7, A2780; test: Inhibition of cell proliferation measured by MTT test; type: cell-based, human
[2] = test system: HT29, HepG2, QGP-1, A431, MCF-7, A2780; conditions: for % uptake: FACS, relative to ICC-d01, range from different cell lines, incubation 24 h, conjugates additionally ICC-labeled, fluorescence-corrected
Description: The human cancer cell lines A2780 and QGP-1 are cultured in RPMI medium, with 10% fetal calf serum (FCS), 2% glutamine, and penicillin/streptomycin added. All cells are seeded into medium at 1×10^5 cells/ml, cultured at 37° C. with 5% CO2, and split 1:5 two times a week. The epithelial human cancer cell lines A549, MCF7, HaCaT, and HepG2 are propagated in DMEM medium (PAN Biotech), with 10% fetal FCS, 2% glutamine, and penicillin/streptomycin. Cells are seeded into medium at 1×10^5 cells/ml (37° C. with 5% CO2, split 1:5 two times a week). HT29 cells are cultured in McCoy's medium (PAN biotech), with 10% FCS), 2% glutamine, and penicillin/streptomycin. Cells are seeded into medium at 1×10^5 cells/ml (37° C. with 5% CO2, split 1:10 two times a week). […] Afterwards, cells are fixed with cold acetone, rinsed and covered with 4,6-diamidino-2-phenylindole (DAPI, Abcam) for nuclear counterstain. Image acquisition is performed using a Leica DMRB microscope (Leica). Images are taken with a digital camera (Spot 32, Diagnostic Instruments) with the same exposure time for all pictures. […] This amount and time is sufficient to measure the supernatant after pooling and cell lysis with DMSO.
For FACS studies, 2×10^5 cells/ml cells are cultured in 24-well plates with normal culture medium or medium containing different concentrations of test substances for 3 or 24 hours. Thereafter, cells are washed with PBS and detached with 200 μl/well accutase (PAA) and washed two times with PBS. Cells are fixed with 500 μl 3% paraformaldehyde for 10 min at 4° C., stopped with 2 ml PBS and centrifuged with 250×g, for 10 min at 4° C. Supernatants are removed and cells were suspended in 200 μl PBS with 0.5% bovine serum albumin (Roth).
Fixed cells are kept at 4° C. until analysis in a FACS Calibur instrument (Becton-Dickinson).

[3] = test system: HT29, HepG2, QGP-1, MCF-7; test: Inhibition of cell proliferation by MTT test, comparison to sulfated polymer; type: cell-based, human; conditions: range from 4 cell lines (Table 8)
Description: For cytotoxicty measurements, 2×10^5 cells were incubated with 1 ml culture medium containing increasing concentrations of test substances. After 72 hs treatment, cell number, viability and cell diameter as parameter of apoptotic processes were analyzed in a cell counter and analyzer system (CASY®, Schärfe Systems). In addition, drug cytotoxicity was assessed in vitro using the MTT assay (cellular reduction of 3-(4,5-dimethylthiazol-2-yl)-2,5-diphenyltetrazolium bromide) as a test for metabolic activity of the cells. 1×10^4 cells per well were seeded in 96-well plates in 100 μl culture medium containing increasing concentration of the test substance. 10 μl MTT (5 mg/ml in PBS, obtained from Sigma) was added to each well and the plates were incubated for 4 hrs, 24 hrs, 48 hrs or up to 72 h. The resulting formazan product was dissolved with acid isopropanol and the absorbance at a wavelength of 570 nm (Ex570) was read on a Microplate Spectrophotometer (Anthos htII, Microsystems). In a couple of experiments, medium with test substances was removed after 48 hs, cells were counted and identical cell numbers with new medium without test substances were seeded in new plates. MTT assay was performed after further incubation for 72 hours.
This polymer is functionalized with the linker maleimido-PEG(4)-COOH NHS ester as described in example 2a, and further purified via RP chromatography. […]

QGP-1 tumor cells = test: Uptake into QGP-1 cells by FACS in presence of genistein or rifamycin; type: cell-based, human; conditions: for uptake +genistein (%) / uptake +rifamycin (%): relative to without inhibitor; for uptake w/o inhibitor (%): without inhibitor defined as 100%
Description: Studies on cellular uptake measured by FACS were conducted as described in example 13. Compound Asp-d13 is incubated at a concentration of 10^−7 M in QGP-1 tumor cells for 3 h and 6 h. Incubation is done in the presence of one of the following two substrates: (1) 0.1 mM genistein, an inhibitor for endocytotic uptake (Rejman et al., Mol. Ther. 2005, 12, 468-474) or (2) 50 mM rifamycin, an inhibitor of uptake via organic anion transporter proteins (OATP; Bi et al., Drug Metab Dispos. 2012, 40, 1085-92).

[4] = range from different cell lines, peptide-dendrimer conjugates (Table 7)
[5] = range from different cell lines (Table 6)

Row | Molecule | IC50 [1, 4] [nM] | IC50 [1, 5] [nM] | % uptake [2] | other results
1 | d02-P1: peptide P1 conjugated to maleimido dendrimer d02 (CGMRPEIWIAQELRRIGDEFNA; conjugated to maleimido dendrimer d02; BIM) | 900 to 2100 |  |  | 
2 | DNase |  | > 2000 | 4-12% | 
3 | saporin |  | > 1000 | 5-8% | IC50 [3]: > 1000 nM
4 | d02-P6: peptide P6 conjugated to maleimido dendrimer d02 (C(d02)GEDIIRNIARHAAQVGASADRSI-NH2; reading uncertain; also: conjugated via N-terminal Cys thiol to maleimido dendrimer d02) | 1200 to 2300 |  |  | 
5 | d02-P5: peptide P5 conjugated to maleimido dendrimer d02 (C(d02)GEEQWAREIGAQLRRMADDLNAQYER-NH2; reading uncertain; also: conjugated via N-terminal Cys thiol to maleimido dendrimer d02) | 800 to 2000 |  |  | 
6 | Diphtheria toxin |  | > 500 | 8-10% | 
7 | L-asparaginase (protein, UniProt P00805 23-348, looked up, enzyme, homotetramer of 4 units of 34 kDa (L-asparaginase 5000E, Medac), without dendrimer) L-asparaginase 2: LPNITILATGGTIAGGGDSATKSNYTVGKVGVENLVNAVPQLKDIANVKGEQVVNIGSQDMNDNVWLTLAKKINTDCDKTDGFVITHGTDTMEETAYFLDLTVKCDKPVVMVGAMRPSTSMSADGPFNLYNAVVTAADKASANRGVLVVMNDTVLDGRDVTKTNTTDVATFKSVNYGPLGYIHNGKIDYQRTPARKHTSDTPFDVSKLNELPKVGIVYNYANASDLPAKALVDAGYDGIVSAGVGNGNLYKSVFDTLATAAKTGTAVVRSSRVPTGATTQDAEVDDAKYGFVASGTLNPQKARVLLQLALTQTKDPQQIQQIFNQY |  | > 1500 | 4-7% | uptake into tumor cells ([2]; in words, referring to example 15): do not show uptake into tumor cells
8 | Asp-polyglycerolsulfate: L-asparaginase coupled to a polyglycerolsulfate, mean molecular weight 12000 Da, according to WO2011/095311 (conjugate, UniProt P00805 23-348, looked up, polyglycerolsulfate conjugate, 12000 Da) L-asparaginase 2: LPNITILATGGTIAGGGDSATKSNYTVGKVGVENLVNAVPQLKDIANVKGEQVVNIGSQDMNDNVWLTLAKKINTDCDKTDGFVITHGTDTMEETAYFLDLTVKCDKPVVMVGAMRPSTSMSADGPFNLYNAVVTAADKASANRGVLVVMNDTVLDGRDVTKTNTTDVATFKSVNYGPLGYIHNGKIDYQRTPARKHTSDTPFDVSKLNELPKVGIVYNYANASDLPAKALVDAGYDGIVSAGVGNGNLYKSVFDTLATAAKTGTAVVRSSRVPTGATTQDAEVDDAKYGFVASGTLNPQKARVLLQLALTQTKDPQQIQQIFNQY |  |  |  | uptake +genistein (%) (QGP-1 tumor cells; 3 h, 0.1 mM genistein): 50%; uptake +rifamycin (%) (QGP-1 tumor cells; 3 h, 50 mM rifamycin): 76%; uptake w/o inhibitor (%) (QGP-1 tumor cells; 3 h): 100%; uptake +genistein (%) (QGP-1 tumor cells; 6 h, 0.1 mM genistein): 55%; uptake +rifamycin (%) (QGP-1 tumor cells; 6 h, 50 mM rifamycin): 72%; uptake w/o inhibitor (%) (QGP-1 tumor cells; 6 h): 100%; dependency of uptake on endocytosis (QGP-1 tumor cells; inhibition by genistein, in words): endocytosis could be identified due to inhibition by genistein
9 | Asp-d13: L-asparaginase conjugated with maleimido dendrimer d13 (conjugate, UniProt P00805 23-348, looked up, maleimido dendrimer d13 conjugate) L-asparaginase 2: LPNITILATGGTIAGGGDSATKSNYTVGKVGVENLVNAVPQLKDIANVKGEQVVNIGSQDMNDNVWLTLAKKINTDCDKTDGFVITHGTDTMEETAYFLDLTVKCDKPVVMVGAMRPSTSMSADGPFNLYNAVVTAADKASANRGVLVVMNDTVLDGRDVTKTNTTDVATFKSVNYGPLGYIHNGKIDYQRTPARKHTSDTPFDVSKLNELPKVGIVYNYANASDLPAKALVDAGYDGIVSAGVGNGNLYKSVFDTLATAAKTGTAVVRSSRVPTGATTQDAEVDDAKYGFVASGTLNPQKARVLLQLALTQTKDPQQIQQIFNQY |  | 10 to 20 |  | FACS signal in the presence of genistein relative to without inhibitor (QGP-1 tumor cells; 10^−7 M, 3 h and 6 h, 0.1 mM genistein): 80-85%; FACS signal in the presence of rifamycin relative to without inhibitor (QGP-1 tumor cells; 10^−7 M, 3 h and 6 h, 50 mM rifamycin): 37-40%
